The labels stand for the following.
B1: Azoarcus group I ribozyme (parent)
chain: GUGCCUUGCGCCGGGAAACCACGCAAGGGAUGGUGUCAAAUUCGGCGAAACCUAAGCGCCCGCCCGGGCGUAUGGCAACGCCGAGCCAAGCUUCGGCGCCUGCGCCGAUGAAGGUGUAGAGACUAGACGGCACCCACCUAAGGCAAACGCUAUGGUGAAGGCAUAGUCCAGGGAGUGGCGAAAGUCACACAAACCGG

Here are results for 84 variants from the RNAGym collection of RNA variant scans (doi:10.1093/molbev/msab373).

Variants of B1 are the subject of the data set. The data set can be described thus: reverse-splicing fitness (ratio to wild type); higher = more active; in vitro selection; Mg2+ level not given. The method in brief: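 An in vitro group I ribozyme library with randomized positions was T7-transcribed and gel-purified. In triplicate, 10 pmol RNA in EPPS pH 7.5 was reacted with 50 pmoles of a 30-nt RNA substrate for 1 h at 37 °C across several added MgCl2 levels (1–48 mM), then stopped with EDTA. Products were reverse transcribed from a substrate-complementary primer, PCR-amplified and sequenced (HiSeq 4000). Fitness is a variant's read proportion after selection over that before, normalised to wild type.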
For A111C A120C A145C C150A U176G, the reverse-splicing fitness was 0.0084.

As for C82U C150A U176G, the reverse-splicing fitness was found to be 0.0218.

C82U C150A U176C: the reverse-splicing fitness was found to be 0.0779. C82U C150A U176A: the reverse-splicing fitness worked out at 0.0603. For the variant A111C A120C A145U C150A C169G, the reverse-splicing fitness was found to be 0.00628.

As to A111C A120C A145U C150A C169U, the reverse-splicing fitness was 0.024. Next, A111C A120C A145U C150A C169A: 0.00839; A111C A120C A145G C150G: 0.0633.

Take A111C A120C A145G C150U: the reverse-splicing fitness came out at 0.462. Take A111C A120C A145G C150A: the reverse-splicing fitness is 0.0979.

For C82U A145U C150U C169G, the reverse-splicing fitness is 0.00951. Next, C82U A145U C150U C169A: 0.00939; C82U A145U C150U C169U: 0.0118; C82U A145G C150A C169U U176G: 0.00508. The result for C82U A145G C150A C169U U176C reads 0.0152; that for C82U A145G C150A C169U U176A, 0.0137; that for A111C, 0.872. Next, C82U C150G C169A: 0.00916; C82U C150G C169U: 0.00789; C82U C150G C169G: 0.00776.

C82U C150G: the reverse-splicing fitness is 0.051.

Take C82U C150U: the reverse-splicing fitness amounted to 0.369. The result for C82U C150A reads 0.0698. Regarding A111C A120C A145G C150U C169U U176A, the reverse-splicing fitness was found to be 0.0283. A111C A120C A145G C150U C169U U176C: the reverse-splicing fitness was 0.0438. As to A111C A120C A145G C150U C169U U176G, the reverse-splicing fitness was determined as 0.00486. The result for A111C A120C A145G C150U C169A U176G reads 0.00559; that for A111C A120C A145G C150U C169A U176C, 0.0144. As to A111C A120C A145G C150U C169A U176A, the reverse-splicing fitness came to 0.014. The result for A111C A120C A145G C150G C169U reads 0.0264; that for A111C A120C A145G C150G C169G, 0.00738. Next, A111C A120C A145G C150G C169A: 0.009; C82U A145U C150U C169A U176G: 0.0048.

On to C82U A145U C150U C169A U176A, for which the reverse-splicing fitness came out at 0.0115. Consider C82U A145U C150U C169A U176C, for which the reverse-splicing fitness was 0.00789.

With C82U A145G C150U, the reverse-splicing fitness turned out to be 0.527.

C82U A145G C150G: the reverse-splicing fitness worked out at 0.0812. With C82U A145U, the reverse-splicing fitness stood at 0.626. The result for A111C A120C A145G C150U U176G reads 0.0297. The result for A111C A120C A145G C150U U176C reads 0.18. Next, A111C A120C A145G C150U U176A: 0.159. For the variant A111C A120C A145G C150G C169A U176G, the reverse-splicing fitness was found to be 0.00793.

Turning to A111C A120C A145G C150G C169A U176A, the reverse-splicing fitness was 0.0133. Next, A111C A120C A145G C150G C169A U176C: 0.0116; A111C A120C A145C C150U C169A: 0.00837; A111C A120C A145C C150U C169G: 0.00649.

A111C A120C A145C C150U C169U: the reverse-splicing fitness turned out to be 0.048. The result for A111C A120C A145G C150U C169G U176A reads 0.0118; that for A111C A120C A145G C150U C169G U176C, 0.0158. Next, A111C A120C A145G C150U C169G U176G: 0.00574; C82U A145G C169U: 0.0143; C82U A145G C169G: 0.0106.

Regarding C82U A145G C169A, the reverse-splicing fitness stood at 0.00962. The result for C82U C169G reads 0.00984; that for C82U C169A, 0.00905; that for C82U C169U, 0.0149. The result for A111C A120C A145U C150A reads 0.0648; that for C82U C169U U176A, 0.0123; that for C82U C169U U176C, 0.0155. The result for C82U C169U U176G reads 0.00445; that for C82U A145U C150G C169G U176A, 0.00745.

Turning to C82U A145U C150G C169G U176G, the reverse-splicing fitness is 0.0049. Next, C82U A145U C150G C169G U176C: 0.00478; A111C A120C A145G C150A C169A U176A: 0.0145. The result for A111C A120C A145G C150A C169A U176G reads 0.00677. On to A111C A120C A145G C150A C169A U176C, for which the reverse-splicing fitness was 0.0214. With C82U A145U C150U, the reverse-splicing fitness stood at 0.438. The result for C82U A145U C150G reads 0.0715.

Turning to C82U A145U C150A, the reverse-splicing fitness is 0.0658. The result for C82U A145G C150A C169A U176G reads 0.00596. Next, C82U A145G C150A C169A U176A: 0.0196; C82U A145G C150A C169A U176C: 0.0216. Next, A111C A120C A145G C150G C169G U176A: 0.0102; A111C A120C A145G C150G C169G U176G: 0.00553; A111C A120C A145G C150G C169G U176C: 0.0119. Take A111C A120C A145C C150G C169G U176G: the reverse-splicing fitness worked out at 0.00522.

On to A111C A120C A145C C150G C169G U176A, for which the reverse-splicing fitness came to 0.00861. The result for A111C A120C A145C C150G C169G U176C reads 0.00939; that for C82U C150G U176A, 0.0283. In the case of C82U C150G U176G, the reverse-splicing fitness worked out at 0.00652. The result for C82U C150G U176C reads 0.0477; that for C82U A145U C169U U176G, 0.00406; that for C82U A145U C169U U176A, 0.0111. On to C82U A145U C169U U176C, for which the reverse-splicing fitness came out at 0.0127.
